Results on 16 sequences are retold here after the DeepSol protein solubility set.

The nature of this data set: soluble on expression in E. coli; label from the status in PepcDB or PDB records.
For the sequence “MSLQLSNFLELERADTFENVERVQNAVATEQSYLDYIVQDWACWDDTYQFIEDKNPEYIRVDLQNQTLSGINVNVMIFVNNSGKVVYVKSVNTSTAEEAPVPRKLLAMIEDGGLLTEGENDSISGFVLLDEDPMFIACHPILTTKYEGPSRGTLIFGRYFDDALLESFKKVTRSSLLMYRADEEMPQDFQNKIKNFSQNSDNIVVDPLNKNQIAGYFGLKDIKGDIALILRADFPREGHHHHHH”, the “soluble on expression in E. coli” value is recorded as “soluble”.

Take “IRQTYEQSCGASSLATLLNILDDQKKFDELELLKIMSGQELYTDMVSFADLNDAVKKLGFQSNSYQINRENLDKLVNIPMLVKIEDDPRFPHFVIIINHKGNYLQVLDPSHGEYISSKSQFFSIWDRYNKGGYALIVAP”: the “soluble on expression in E. coli” value is “not soluble”.

Take “MSSQSIDDKFMSITQMKNLIHYVKKNDALSHLCIYILIITGSRFKPVQHLRYEDLNFKKSCIHLNDTKNKYSKRNVKVRIKDLEYIQSVINKHPINQNGYIFHNFINFISYSAINDVLVRFCLKYKYDKYTLKSLRHTHCSYLLAKGISIQYISKRLGHADIHTTLKIYSHLIKEFEDSENSLIEKNLNDLFSDLEHHHHHH”: the “soluble on expression in E. coli” value is on record as “not soluble”.

In the case of “MGSDKIHHHHHHMKRVQNLLVAVGLSPNYHRRTYPSGKKSLVVRFYATLTPGLEDVAAKEVESFGCKVEEIRERRGRIFFSGEKSAIPLLNHFSRTLERLNVLLLRCEVEGLDDIYAAVKGLDFSFVKGKSFAIRSLRVGEHDFTSMDIARVAGQAVIDSFMESYGERLKVNLNQPDVIIRVELVDSELFVGVDTTGDDAMHKRWWRVYNHPAHLNAAIACGMLRIADWKVDESLIDPMCGSGTIPIEAALMVRNVPNLRDFAYKKLCEWELAFEPNEVRLKLYGMEKFRKHLVGAIRNAVNAGVADTIEFRQGDATEMTGEYDVIITNPPYGLRIHRKGAIERLYHSFARAAKRCMNQNSRLVIITAEHRVFANAAEEAGLQCTHERFVKYGGLLTKIMVFMI”, the “soluble on expression in E. coli” value is recorded as “not soluble”.

Regarding “GPGSMFSGSEGSVRTDDTNVEPPPIPKTRGPLLFEGVRLAGGPPRRTPKRSCSRYFSVTRKTTSAGTDECEHAPPGFSLVNTPSTQDVSPSAKMELPCSAAAHYDDDDDDDDIIPSTAPLPTPHPVMHRVLATGQPNGVSRLLPFDEYVVEEVTPRKCSSISADTSGAAPSTPQGTELREVTQVEEQSPLPAVPEMCESPTRFTLGPRLPVNGEKVRMDFYFLQQEVDAWAKPIETTADVEWHKQHLQETRVAMRSLLHELEVLIAREAAEHERLCIARGFSAMESTSDGKCTYAGETDVVSKTRGKEWKQEELETLEAWRVEKGALLAQKSKLLREHQELQYRLRSHLSGSATGRVTPSPNTSVSRSNKSRGDEGNIGGMSTPLDNGVAQLRLEISEMNAKLKKLEDAYKVLHDNQQWRQGEFDDEYGALCRALATATAGEINNRTALQDTIREAEGVRANCLRQGDASLVSLMERGLSEAKAALKCHDTEQYETK”, the “soluble on expression in E. coli” value was “not soluble”.

“MEIGPDGKPCRACVSVEDMMKKGREMAEKIKKKESETTPSTSTGAKLHGCPVDKDELGRSTWNLLHTMSVYYPEKPTDEDKDRARSFMSILGKTYPCDFCAKDLRKDLKESPPKVESREAFALWMCQLHNKVNEKTGKPKFECRDVMQRWRDGWKDGSCDY”: the “soluble on expression in E. coli” value was “soluble”.

For the sequence “MSLIILDNHFHVDPNHGLFLEAVKQFQRAGGTHLIVVYKTAHDYGFPGLKAEDFMKAMDFHIELVEKINRETQVKAYAVVGVHPAEFDYLARNKGLEFARNEVMKALEYAQKLCLEGKAVGIGEVGRPHYEVPQQIWEVSIEIMKYAMELAKDADCAVQLHTESFNEEKFRELGEYIREVGIKPYKVVKHFSPPLVNVAKEVGVFPSIIASKKNIEEAIKQGNRFLMETDYIDDKRRPGAVLGPKTVPKRTKEFLQRGIFTEEDVYKIHVENPKKVYGIEIEGHHHHHH”, the “soluble on expression in E. coli” value is “soluble”.

Turning to “SLPTIIGLAAVARSGKDTVASMLMEHPEVATYALADPLKAGCQAIFGLSDAEAWSDEAKEKTIDLWGLSPRQLFQRAGTEWLRDHNADHWLLRADRQLNHKPVEPRPVSATELASPSASIWLGVQAFWGLTEAQTWQDDLRAAEDPFWNITPKEMFAIVDRYLSRDFPSYVSTRSKRAISTPTRPLTNAAGKSIFIIKDIRYENEAAFWRSHNGVIWHITRNNAIKVQSHSSEDGIEFRNGDISIENNDTIEELRKKVESAWSCVRVD”, the “soluble on expression in E. coli” value is on record as “soluble”.

Turning to “MPKRTDIKSILILGAGPIVIGQACEFDYSGAQACKALREEGYRVILVNSNPATIMTDPEMADATYIEPIHWEVVRKIIEKERPDAVLPTMGGQTALNCALELERQGVLEEFGVTMIGATADAIDKAEDRRRFDVAMKKIGLETARSGIAHTMEEALAVAADVGFPCIIRPSFTMGGSGGGIAYNREEFEEICARGLDLSPTKELLIDESLIGWKEYEMEVVRDKNDNCIIVCSIENFDAMGIHTGDSITVAPAQTLTDKEYQIMRNASMAVLREIGVETGGSNVQFAVNPKNGRLIVIEMNPRVSRSSALASKATGFPIAKVAAKLAVGYTLDELMNDITGGRTPASFEPSIDYVVTKIPRFNFEKFAGANDRLTTQMKSVGEVMAIGRTQQESLQKALRGLEVGATGFDPKVSLDDPEALTKIRRELKDAGADRIWYIADAFRAGLSVDGVFNLTNIDRWFLVQIEELVRLEEKVAEVGITGLNADFLRQLKRKGFADARLAKLAGVREAEIRKLRDQYDLHPVYKRVDTCAAEFATDTAYMYSTYEEECEANPSTDREKIMVLGGGPNRIGQGIEFDYCCVHASLALREDGYETIMVNCNPETVSTDYDTSDRLYFEPVTLEDVLEIVRIEKPKGVIVQYGGQTPLKLARALEAAGVPVIGTSPDAIDRAEDRERFQHAVERLKLKQPANATVTAIEMAVEKAKEIGYPLVVRPSYVLGGRAMEIVYDEADLRRYFQTAVSVSNDAPVLLDHFLDDAVEVDVDAICDGEMVLIGGIMEHIEQAGVHSGDSACSLPAYTLSQEIQDVMRQQVQKLAFELQVRGLMNVQFAVKNNEVYLIEVNPRAARTVPFVSKATGVPLAKVAARVMAGKSLAEQGVTKEVIPPYYSVKEVVLPFNKFPGVDPLLGPEMRSTGEVMGVGRTFAEAFAKAQLGSNSTMKKHGRALLSVREGDKERVVDLAAKLLKQGFELDATHGTAIVLGEAGINPRLVNKVHEGRPHIQDRIKNGEYTYIINTTSGRRAIEDSRVIRRSALQYKVHYDTTLNGGFATAMALNADATEKVISVQEMHAQIK”, the “soluble on expression in E. coli” value is recorded as “soluble”.

Take “MSEKTFLVEIGTEELPPKALRSLAESFAANFTAELDNAGLAHGTVQWFAAPRRLALKVANLAEAQPDREIEKRGPAIAQAFDAEGKPSKAAEGWARGCGITVDQAERLTTDKGEWLLYRAHVKGESTEALLPNMVATSLAKLPIPKLMRWGASDVHFVRPVHTVTLLLGDKVIPATILGIQSDRVIRGHRFMGEPEFTIDNADQYPEILRERGKVIADYEERKAKIKADAEEAARKIGGNADLSESLLEEVASLVEWPVVLTAKFEEKFLAVPAEALVYTMKGDQKYFPVYANDGKLLPNFIFVANIESKDPQQIISGNEKVVRPRLADAEFFFNTDRKKRLEDNLPRLQTVLFQQQLGTLRDKTDRIQALAGWIAEQIGADVNHATRAGLLSKCDLMTNMVFEFTDTQGVMGMHYARHDGEAEDVAVALNEQYQPRFAGDDLPSNPVACALAIADKMDTLAGIFGIGQHPKGDKDPFALRRAALGVLRIIVEKNLNLDLQTLTEEAVRLYGDKLTNANVVDDVIDFMLGRFRAWYQDEGYTVDTIQAVLARRPTRPADFDARMKAVSHFRTLEAAAALAAANKRVSNILAKSDEVLSDRVNASTLKEPEEIKLAMQVVVLRDKLEPYFAEGRYQDALVELAELREPVDAFFDKVMVMVDDKELRLNRLTMLEKLRELFLRVADISLLQ”: the “soluble on expression in E. coli” value was “not soluble”.

As for “MSLAQDVVVGVSWSNFQEERWKTDEAAIKAELESKGAKYISADAQSSSAKQLSDVESLIAQGATALIILAQDAQAIGPAVQAAADEGIPVVGYDRLIEDSRAFYLTFDNVEVGRMQARAVLEAAPSGRYVMIKGSPTDPNADFLRGGQQEVLQAAIDKGDITIVGEAYTDGWLPANAQRNMEQILTATDNGVDAVVASNDGTAGGVVAALTAQGMEGLPVSGQDGDHAALNRVAKGTQTVSVWKDARDLGRAAARIAVSLAEGTQMNAIGGADDWTSPGGTKMNAMFLEPLPITKDNLSVVVDAGWITQETLCQGVTNGPAPCNEGHHHHHH”, the “soluble on expression in E. coli” value was “soluble”.

Turning to “MGSDKIHHHHHHMTSSSRIAVRELPLFPLPEVVLFPTRPLPLHIFEFRYRIMMNTILESDRRFGVLMVDPVKGTIANVGCCAEIIHYQRLPDDRMKMLTLGQQRFRVLEYVREKPYRVGLVEWLEDHPPAKDLRPLATDVEQLLRDVVRLSAKITEQNIEIPEELPDLPTELSYWVASNLYGVAGEQQSLLEMQDTAARLEREAEILTTTRNHLAARSVLKDTFNPKL”, the “soluble on expression in E. coli” value is on record as “not soluble”.

In the case of “MFSAKKRDKCIGEMSEKQLDLLVIGGGITGAGIALDAQVRGIQTGLVEMNDFASGTSSRSTKLVHGGLRYLKQFEIKLVAEVGKERAIVYENAPHVTTPEWMLLPIFKDGTFGKFSTSLGLKVYDYLADVRKDERRYMLNEKQTLEKEPLLRKENLKGGGIYVEYRTDDARLTLEIMKEAVARGAVALNYMKVESFIYDQGKVVGVVAKDRLTDTTHTIYAKKVVNAAGPWVDTLREKDRSKHGKYLKLSKGVHLVVDQSRFPLRQAVYFDTESDGRMIFAIPREGKTYIGTTDTFYDKDIASPRMTVEDRDYILAAANYMFPSLNLTADDVESSWAGLRPLIHEEGKKASEISRKDEIFFSDSGLISIAGGKLTGYRKMAERTVDAVAQGLNVNEPCTTAAIRLSGGLAEGAQGFPRFLDEASRKGAKLGFDADEVRRLAKLYGSNVDHVLNYAYEGKEEAEHYGLPALLLGQLQYGVEQEMVATPLDFFVRRTGALFFNISLVHQWKEAVLRWMAEEFSWTEEEKTRFQNELETELKMAVDPLFQVEPTTVLEHHHHHH”, the “soluble on expression in E. coli” value is given as “soluble”.

“MHHHHHHGGGGGMINKPNQFVNHLSALKKHFASYKELREAFNDYHKHNGDELTTFFLHQFDKVMELVKQKDFKTAQSRCEEELAAPYLPKPLVSFFQSLLQLVNHDLLEQQNAALASLPAAKIIELVLQDYPNKLNMIHYLLPKTKAFVKPHLLQRLQFVLTDSELLELKRFSFFQALNQIPGFQGEQVEYFNSKLKQKFTLTLGEFEIAQQPDAKAYFEQLITQIQQLFLKEPVNAEFANEIIDAFLVSYFPLHPPVPLAQLAAKIYEYVSQIVLNEAVNLKDELIKLIVHTLYEQLDRPVGDEN”: the “soluble on expression in E. coli” value is “soluble”.

In the case of “MPFSQIGINGIVNLKKMHVKNYRAPQVSVLNFLPPRHIVLGLENLDIGLGSEFTANAVPIVVEGSLVGQITGMTVALTTELLTDVTGKMNAVVRNCSALIGNSHIVLNPTGPMSIFVKTFEPMINDSVRQRIPEMFCSRLQNLIEKNISKLFEFITKIDLEDYFPKASNVEKDVMNM”, the “soluble on expression in E. coli” value is reported as “not soluble”.

Regarding “MSVESSNQTTSLSSYLLKCAFSFGTAPPSLSPPSSTGSYEEADFSRFVQQNETGHKLTSYQSLANRDPCTIPDELHQEMKSLKKKEEAFKTSLCGFHRRGQKCAYGEKCKFAHSVHELRFPQTKRNHRNYKTVLCNNFSTTGHCKYGIRCQFIHRSMDSTSSNQSNETENITIDLNVQSDVFRAFALDSTSSLPNWHCSALLH”, the “soluble on expression in E. coli” value is reported as “not soluble”.
